In patent US8349320:

Assays:
[1] = biological target: mouse HVEM-Fc (mouse; human) (UniProt Q80WM9); assay: flow cytometry competition, graded soluble gD against 2 µg/ml mHVEM:Fc on hLIGHT-EL4 cells (FIG. 3G)
[2] = biological target: mouse HVEM expressed on cells (mouse) (UniProt Q80WM9); assay: flow cytometry competition, graded soluble gD against 1.4 µg/ml mBTLA-T on mHVEM-HEK293 cells (FIG. 3G)
Chain of mouse HVEM expressed on cells (mouse) (Q80WM9 39-275): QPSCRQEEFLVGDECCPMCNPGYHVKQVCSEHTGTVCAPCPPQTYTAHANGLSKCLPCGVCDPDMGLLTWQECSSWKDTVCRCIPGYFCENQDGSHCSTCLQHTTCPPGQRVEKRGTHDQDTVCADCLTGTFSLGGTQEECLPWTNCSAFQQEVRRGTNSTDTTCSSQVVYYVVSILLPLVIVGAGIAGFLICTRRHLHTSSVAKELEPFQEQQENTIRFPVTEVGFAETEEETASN

Chain of mouse HVEM-Fc (mouse; human) (Q80WM9 39-206 limits assumed): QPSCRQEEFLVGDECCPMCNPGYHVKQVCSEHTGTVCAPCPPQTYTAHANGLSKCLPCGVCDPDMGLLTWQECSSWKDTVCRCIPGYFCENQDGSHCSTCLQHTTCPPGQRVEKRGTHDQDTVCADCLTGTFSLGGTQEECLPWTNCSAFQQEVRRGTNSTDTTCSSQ

For “purified recombinant soluble gD (gD-1Δ290-299)”, the Kd [1] was 250 nM and the Kd [2] was 250 nM.
